Source: US20230405133A1, “PURIFIED MULTIVALENT PROTEIN-HYALURONIC ACID POLYMER CONJUGATES” (Valitor, Inc., priority 2022, published 2023)

B1: Conjugate 8 (anti-VEGF E1-1 SEQ ID NO: 81 with aH linker SEQ ID NO: 21 on hyaluronic acid, intermediate 5-7) (VHH)
VHH: EVQLQASGGGFVQPGGSLRLSCAASGGGSDAGTMGWFRQAPGKEREFVSAISWAGTAWRYYADSVKGRFTISRDNSKNTVYLQMNSLRAEDTATYYCALGSYEMDHHYWGQGTQVTVSS
modifications: C-terminal Cys of the peptide linker bound by its thiol to the maleimide of the organic linker MP2H on hyaluronic acid (830 kDa)
notes: Multivalent peptide-hyaluronic acid conjugate (MVP); peptide valency 94; Method 5 intermediate; also called anti-VEGF E1-1 MVP (Method 5)
B2: Conjugate 10 (anti-VEGF E1-1 SEQ ID NO: 81 with aH linker SEQ ID NO: 21 on hyaluronic acid, intermediate 2-4) (VHH)
VHH: B1 VHH
modifications: C-terminal Cys of the peptide linker bound by its thiol to the maleimide of the organic linker MP2H on hyaluronic acid (830 kDa)
notes: Multivalent peptide-hyaluronic acid conjugate (MVP); peptide valency 136; Method 2 intermediate; also called anti-VEGF E1-1 MVP (Method 2)
B3: Conjugate 9 (anti-VEGF E1-1 SEQ ID NO: 81 with aH linker SEQ ID NO: 21 on hyaluronic acid, intermediate 5-9) (VHH)
VHH: B1 VHH
modifications: C-terminal Cys of the peptide linker bound by its thiol to the maleimide of the organic linker MP2H on hyaluronic acid (830 kDa)
notes: Multivalent peptide-hyaluronic acid conjugate (MVP); peptide valency 51; Method 5 intermediate
B4: Conjugate 11 (anti-VEGF E1-1 SEQ ID NO: 81 with aH linker SEQ ID NO: 21 on hyaluronic acid, intermediate 5-2) (VHH)
VHH: B1 VHH
modifications: C-terminal Cys of the peptide linker bound by its thiol to the maleimide of the organic linker MP2H on hyaluronic acid (830 kDa)
notes: Multivalent peptide-hyaluronic acid conjugate (MVP); peptide valency 47; Method 5 intermediate
B5: Conjugate 15 (anti-VEGF VHH SEQ ID NO: 91 with aH linker SEQ ID NO: 21 on hyaluronic acid, intermediate 5-10) (VHH)
VHH: DVQLVESGGGLVQPGGSLRLSCAASGRTFSSYSMGWFRQAPGKEREFVVAISKGGYKYDAVSLEGRFTISRDNAKNTVYLQINSLRPEDTAVYYCASSRAYGSSRLRLADTYEYWGQGTLVTVSS
modifications: C-terminal Cys of the peptide linker bound by its thiol to the maleimide of the organic linker EMCH on hyaluronic acid (830 kDa)
notes: Multivalent peptide-hyaluronic acid conjugate (MVP); peptide valency 59; Method 5 intermediate 5-10, made with EMCH instead of MP2H; also called BI VHH anti-VEGF MVP
B6: Conjugate 18 (anti-VEGF VHH SEQ ID NO: 91 on hyaluronic acid, intermediate 1-7) (VHH)
VHH: B5 VHH
modifications: peptide bound through the organic linker MP2H to hyaluronic acid (830 kDa); site of attachment not stated
notes: Multivalent peptide-hyaluronic acid conjugate (MVP); peptide valency 88; Method 1 intermediate; also called BI VHH anti-VEGF MVP
B7: Conjugate 21 (anti-VEGF VHH SEQ ID NO: 91 with aH linker SEQ ID NO: 21 on hyaluronic acid, intermediate 1-9) (VHH)
VHH: B5 VHH
modifications: C-terminal Cys of the peptide linker bound by its thiol to the maleimide of the organic linker MP2H on hyaluronic acid (830 kDa)
notes: Multivalent peptide-hyaluronic acid conjugate (MVP); peptide valency 51; Method 1 intermediate; also called BI VHH anti-VEGF MVP
B8: Conjugate 20 (anti-VEGF VHH SEQ ID NO: 91 on hyaluronic acid, intermediate 2-8) (VHH)
VHH: B5 VHH
modifications: peptide bound through the organic linker MP2H to hyaluronic acid (830 kDa); site of attachment not stated
notes: Multivalent peptide-hyaluronic acid conjugate (MVP); peptide valency 91; Method 2 intermediate; also called BI VHH anti-VEGF MVP
B9: Conjugate 14 (anti-VEGF VHH SEQ ID NO: 91 with Rigid linker SEQ ID NO: 31 on hyaluronic acid, intermediate 5-3) (VHH)
VHH: B5 VHH
modifications: C-terminal Cys of the peptide linker bound by its thiol to the maleimide of the organic linker MP2H on hyaluronic acid (830 kDa)
notes: Multivalent peptide-hyaluronic acid conjugate (MVP); peptide valency 68; Method 5 intermediate; also called BI VHH anti-VEGF MVP
B10: Conjugate 13 (anti-VEGF VHH SEQ ID NO: 91 with Rigid linker SEQ ID NO: 31 on hyaluronic acid, intermediate 5-8) (VHH)
VHH: B5 VHH
modifications: C-terminal Cys of the peptide linker bound by its thiol to the maleimide of the organic linker MP2H on hyaluronic acid (830 kDa)
notes: Multivalent peptide-hyaluronic acid conjugate (MVP); peptide valency 72; Method 5 intermediate; also called BI VHH anti-VEGF MVP

Columns and labels:
Human VEGF 165 [1] = target: T1, Human VEGF 165 (human, UniProt P15692-4 27-191); test: BLI, VEGF 165 on probe, conjugate as analyte, t = 0; t = 0, fresh conjugate, not aged
T1 construct: Loaded on the BLI probe as the ligand; also called BLI ligand Human VEGF 165 (Avi tag, R&D Systems AVI-293-050); not shown: Avi tag

Human VEGF 165 [2] = target: T1, Human VEGF 165; test: BLI, VEGF 165 on probe; sample aged 3 days at 37 °C; aged 3 days at 37 C (sample 1)
Human VEGF 165 [3] = target: T1, Human VEGF 165; test: BLI; KD after 3 days at 37 °C against KD at t = 0; fold change of KD, 3 days at 37 C against t = 0
Human VEGF 165 [4] = target: T1, Human VEGF 165; test: BLI, VEGF 165 on probe, conjugate as analyte, t = 0
Target sequence in this assay (P15692 other isoform, or with tags, fused parts or gaps limits assumed): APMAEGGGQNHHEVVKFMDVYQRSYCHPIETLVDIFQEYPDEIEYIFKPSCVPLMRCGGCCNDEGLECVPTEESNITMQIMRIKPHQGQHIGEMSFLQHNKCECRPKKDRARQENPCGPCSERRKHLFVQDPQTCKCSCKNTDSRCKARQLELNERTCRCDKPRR

Human VEGF 165 [5] = target: T1, Human VEGF 165; test: BLI; KD after 5 days at 37 °C against KD at t = 0
Human VEGF 165 [6] = target: T1, Human VEGF 165; test: BLI, VEGF 165 on probe, t = 0 (repeats Table 15)
Human VEGF 165 [7] = target: T1, Human VEGF 165; test: BLI, VEGF 165 on probe; sample aged 5 days at 37 °C
Human VEGF 165 [8] = target: T1, Human VEGF 165; test: BLI; KD after 3 days at 37 °C against KD at t = 0
Human VEGF 165 [9] = target: T1, Human VEGF 165; test: BLI, VEGF 165 on probe; sample aged 3 days at 37 °C
Human VEGF 165 [10] = target: T1, Human VEGF 165; test: BLI, VEGF 165 on probe, conjugate as analyte, t = 0; value is the limit of detection; t = 0, fresh conjugate, not aged
Target sequence in this assay (P15692 other isoform, or with tags, fused parts or gaps limits assumed): as above

Human VEGF 165 [11] = target: T1, Human VEGF 165; test: BLI, VEGF 165 on probe, t = 0 (repeats Table 15); limit of detection
Target sequence in this assay (P15692 other isoform, or with tags, fused parts or gaps limits assumed): as above

Human VEGF 165 [12] = target: T1, Human VEGF 165; test: BLI; KD after 4 days at 37 °C against KD at t = 0
Target sequence in this assay (P15692 other isoform, or with tags, fused parts or gaps limits assumed): as above

Human VEGF 165 [13] = target: T1, Human VEGF 165; test: BLI, VEGF 165 on probe; sample aged 4 days at 37 °C; limit of detection
Target sequence in this assay (P15692 other isoform, or with tags, fused parts or gaps limits assumed): as above

Human VEGF 165 [14] = target: T1, Human VEGF 165; test: BLI, VEGF 165 on probe; sample aged 14 days at 37 °C
Target sequence in this assay (P15692 other isoform, or with tags, fused parts or gaps limits assumed): as above

Human VEGF 165 [15] = target: T1, Human VEGF 165; test: BLI, VEGF 165 on probe, conjugate as analyte, t = 0; value is the limit of detection
Human VEGF 165 [16] = target: T1, Human VEGF 165; test: BLI; KD after 14 days at 37 °C against KD at t = 0
Human VEGF 165 [17] = target: T1, Human VEGF 165; test: BLI, VEGF 165 on probe; sample aged 4 days at 37 °C

Row | Binder | Kd (Human VEGF 165 [4]) [nM] | Kd (Human VEGF 165 [11]) [nM] | Change in KD to t = 0 (Human VEGF 165 [12]) [fold] | Kd (Human VEGF 165 [14]) [nM] | Kd (Human VEGF 165 [15]) [nM] | Change in KD to t = 0 (Human VEGF 165 [16]) [fold] | other results
1 | B1 | – | – | – | – | – | – | Kd (Human VEGF 165 [1]): 0.184 nM; Kd (Human VEGF 165 [2]): 0.557 nM; Change in KD to t = 0 (Human VEGF 165 [3]): 3 fold
2 | B2 | 0.123 | – | – | – | – | – | –
3 | B3 | 0.678 | – | – | – | – | – | –
4 | B4 | 1.04 | – | – | – | – | – | Change in KD to t = 0 (Human VEGF 165 [5]): 21 fold; Kd (Human VEGF 165 [6]): 1.04 nM; Kd (Human VEGF 165 [7]): 21.9 nM; Change in KD to t = 0 (Human VEGF 165 [8]): 7 fold; Kd (Human VEGF 165 [9]): 6.75 nM
5 | B5 | – | – | – | – | – | – | Kd (Human VEGF 165 [10]): < 0.001 nM
6 | B6 | – | < 0.001 | 1 | 3.67 | < 0.001 | 3670 | Kd (Human VEGF 165 [13]): < 0.001 nM
7 | B7 | – | < 0.001 | 3300 | 1.14 | < 0.001 | 1140 | Kd (Human VEGF 165 [17]): 3.3 nM
8 | B8 | – | < 0.001 | 1 | 1.44 | < 0.001 | 1440 | Kd (Human VEGF 165 [13]): < 0.001 nM
9 | B9 | – | – | – | – | – | – | Kd (Human VEGF 165 [1]): 0.203 nM
10 | B10 | 0.011 | – | – | – | – | – | –
